Laboratory results from IntAct's records for PubMed 35512704.

B1: Mothers against decapentaplegic homolog 4 (Homo sapiens), Q13485 (parent)
chain: MDNMSITNTPTSNDACLSIVHSLMCHRQGGESETFAKRAIESLVKKLKEKKDELDSLITAITTNGAHPSKCVTIQRTLDGRLQVAGRKGFPHVIYARLWRWPDLHKNELKHVKYCQYAFDLKCDSVCVNPYHYERVVSPGIDLSGLTLQSNAPSSMMVKDEYVHDFEGQPSLSTEGHSIQTIQHPPSNRASTETYSTPALLAPSESNATSTANFPNIPVASTSQPASILGGSHSEGLLQIASGPQPGQQQNGFTGQPATYHHNSTTTWTGSRTAPYTPNLPHHQNGHLQHHPPMPPHPGHYWPVHNELAFQPPISNHPAPEYWCSIAYFEMDVQVGETFKVPSSCPIVTVDGYVDPSGGDRFCLGQLSNVHRTEAIERARLHIGKGVQLECKGEGDVWVRCLSDHAVFVQSYYLDREAGRAPGDAVHKIYPSAYIKVFDLRQCHRQMQQQAATAQAAAAAQAAAVAGNIPGPGSVGGIAPAISLSAAAGIGVDDLRRLCILRMSFVKGWGPDYPRQSIKETPCWIEIHLHRALQLLDEVLHTMPIADPQPLD

Variants of: B1
Conditions: with keap1_human KEAP1, Q14145

Variant	effect of a mutation on the interaction
D351H	with no effect

Variants of: B1
Conditions: with klf4_human KLF4, O43474

Variant	effect of a mutation on the interaction
D351H	with no effect

Variants of: B1
Conditions: with maga6_human MAGEA6, P43360

Variant	effect of a mutation on the interaction
D351H	with no effect

Variants of: B1
Conditions: with mp2k7_human MAP2K7, O14733

Variant	effect of a mutation on the interaction
D351H	with no effect

Variants of: B1
Conditions: with m3k1_human MAP3K1, Q13233

Variant	effect of a mutation on the interaction
D351H	with no effect

Variants of: B1
Conditions: with mk10_human MAPK10, P53779

Variant	effect of a mutation on the interaction
D351H	with no effect

Variants of: B1
Conditions: with mk14_human MAPK14, Q16539

Variant	effect of a mutation on the interaction
D351H	with no effect

Variants of: B1
Conditions: with mk03_human MAPK3, P27361

Variant	effect of a mutation on the interaction
D351H	with no effect

Variants of: B1
Conditions: with mk04_human MAPK4, P31152

Variant	effect of a mutation on the interaction
D351H	with no effect

Variants of: B1
Conditions: with mk06_human MAPK6, Q16659

Variant	effect of a mutation on the interaction
D351H	with no effect

Variants of: B1
Conditions: with mcl1_human MCL1, Q07820

Variant	effect of a mutation on the interaction
D351H	with no effect

Variants of: B1
Conditions: with mitf_human MITF

Variant	effect of a mutation on the interaction
D351H	with no effect

Variants of: B1
Conditions: with myc_human MYC

Variant	effect of a mutation on the interaction
D351H	with no effect

Variants of: B1
Conditions: with nck2_human NCK2, O43639

Variant	effect of a mutation on the interaction
D351H	with no effect

Variants of: B1
Conditions: with nf1_human NF1, P21359

Variant	effect of a mutation on the interaction
D351H	with no effect

Variants of: B1
Conditions: with merl_human NF2, P35240

Variant	effect of a mutation on the interaction
D351H	with no effect

Variants of: B1
Conditions: with nfic_human NFIC

Variant	effect of a mutation on the interaction
D351H	with no effect

Variants of: B1
Conditions: with notc2_human NOTCH2, Q04721

Variant	effect of a mutation on the interaction
D351H	with no effect

Variants of: B1
Conditions: with ntrk2_human NTRK2, Q16620

Variant	effect of a mutation on the interaction
D351H	with no effect

Variants of: B1
Conditions: with ntrk3_human NTRK3, Q16288

Variant	effect of a mutation on the interaction
D351H	with no effect

Variants of: B1
Conditions: with pak3_human PAK3, O75914

Variant	effect of a mutation on the interaction
D351H	with no effect

Variants of: B1
Conditions: with prkn_human PRKN

Variant	effect of a mutation on the interaction
D351H	with no effect

Variants of: B1
Conditions: with pax5_human PAX5, Q02548

Variant	effect of a mutation on the interaction
D351H	with no effect

Variants of: B1
Conditions: with pax9_human PAX9, P55771

Variant	effect of a mutation on the interaction
D351H	with no effect

Variants of: B1
Conditions: with pcbp1_human PCBP1, Q15365

Variant	effect of a mutation on the interaction
D351H	with no effect

Variants of: B1
Conditions: with pgfra_human PDGFRA

Variant	effect of a mutation on the interaction
D351H	with no effect

Variants of: B1
Conditions: with pgfrb_human PDGFRB

Variant	effect of a mutation on the interaction
D351H	with no effect

Variants of: B1
Conditions: with pdk1_human PDK1, Q15118

Variant	effect of a mutation on the interaction
D351H	with no effect

Variants of: B1
Conditions: with PIK3C2B

Variant	effect of a mutation on the interaction
D351H	with no effect

Variants of: B1
Conditions: with pk3c3_human PIK3C3, Q8NEB9

Variant	effect of a mutation on the interaction
D351H	with no effect

Variants of: B1
Conditions: with pk3ca_human PIK3CA

Variant	effect of a mutation on the interaction
D351H	with no effect

Variants of: B1
Conditions: with pk3cb_human PIK3CB

Variant	effect of a mutation on the interaction
D351H	with no effect

Variants of: B1
Conditions: with pk3cg_human PIK3CG

Variant	effect of a mutation on the interaction
D351H	with no effect

Variants of: B1
Conditions: with p85a_human PIK3R1, P27986

Variant	effect of a mutation on the interaction
D351H	with no effect

Variants of: B1
Conditions: with p85b_human PIK3R2, O00459

Variant	effect of a mutation on the interaction
D351H	with no effect

Variants of: B1
Conditions: with dpod1_human POLD1, P28340

Variant	effect of a mutation on the interaction
D351H	with no effect

Variants of: B1
Conditions: with dpoe1_human POLE

Variant	effect of a mutation on the interaction
D351H	with no effect

Variants of: B1
Conditions: with lipa1_human PPFIA1, Q13136

Variant	effect of a mutation on the interaction
D351H	with no effect

Variants of: B1
Conditions: with 2aaa_human PPP2R1A

Variant	effect of a mutation on the interaction
D351H	with no effect

Variants of: B1
Conditions: with prdm1_human PRDM1, O75626

Variant	effect of a mutation on the interaction
D351H	with no effect

Variants of: B1
Conditions: with aapk2_human PRKAA2, P54646

Variant	effect of a mutation on the interaction
D351H	with no effect

Variants of: B1
Conditions: with prss8_human PRSS8, Q16651

Variant	effect of a mutation on the interaction
D351H	with no effect

Variants of: B1
Conditions: with ptk6_human PTK6, Q13882

Variant	effect of a mutation on the interaction
D351H	with no effect

Variants of: B1
Conditions: with tf65_human RELA

Variant	effect of a mutation on the interaction
D351H	with no effect
